Experiments:
[1] = target: CD74 (invariant chain, Ii) (human) (UniProt P04233); test: cell-based or functional assay
CD20 = CD20 (UniProt P11836); test: cell-based or functional assay
CD20, sequence (P11836 whole entry): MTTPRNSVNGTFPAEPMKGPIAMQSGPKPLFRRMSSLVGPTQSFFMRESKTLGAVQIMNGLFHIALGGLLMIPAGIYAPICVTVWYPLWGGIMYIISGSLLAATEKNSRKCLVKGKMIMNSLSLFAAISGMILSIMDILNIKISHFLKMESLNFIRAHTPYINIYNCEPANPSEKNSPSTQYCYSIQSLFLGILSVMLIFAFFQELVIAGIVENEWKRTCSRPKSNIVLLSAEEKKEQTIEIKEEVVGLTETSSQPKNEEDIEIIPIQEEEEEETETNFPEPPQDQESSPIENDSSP

CD74 (invariant chain, Ii) (human), sequence (P04233 whole entry, change not shown): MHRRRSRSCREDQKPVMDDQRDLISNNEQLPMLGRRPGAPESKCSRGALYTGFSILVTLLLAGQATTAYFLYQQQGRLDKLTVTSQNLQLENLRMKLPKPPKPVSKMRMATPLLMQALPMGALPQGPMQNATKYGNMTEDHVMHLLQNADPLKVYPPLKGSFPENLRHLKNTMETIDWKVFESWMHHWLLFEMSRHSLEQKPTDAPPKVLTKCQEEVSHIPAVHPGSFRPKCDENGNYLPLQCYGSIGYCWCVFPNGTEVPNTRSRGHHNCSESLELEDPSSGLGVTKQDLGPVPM

Row | Substance | reduction of live B cells in human PBMCs after 3 days with antibody, flow cytometry [1] [%] | reduction of live mDC2 in human PBMCs after 3 days with antibody, flow cytometry [1] [%] | in vitro cytotoxicity EC50, Daudi and Ramos NHL cell lines (CD20) [nM] | in vitro cytotoxicity EC50, Jeko-1 mantle cell lymphoma line (CD20) [nM]
1 | milatuzumab (humanized anti-CD74 LL1 antibody) | 22 | 53.8 | – | –
2 | 20-Rap (hA20 IgG-AD2 with four copies of Rap-DDD2) | – | – | 0.1 | 0.02

Reference: US20130164214A1
